Patent publication US20200249231

Experiments:
[1] = biological target: T1, YRYAK (5-mer on peptide array)
T1 chain: YRYAK

[2] = biological target: T2, YKYKY (5-mer on peptide array)
T2 chain: YKYKY

[3] = biological target: T3, APRYRQRAA (9-mer on peptide array)
T3 chain: APRYRQRAA

[4] = biological target: T4, RYSKY (5-mer on peptide array)
T4 chain: RYSKY

Z-[GGGRYSKYGGGG] = biological target: T5, Z-[GGGRYSKYGGGG]
T5 chain: GGGRYSKYGGGG

[5] = biological target: T6, EWVAQ (5-mer on peptide array)
T6 chain: EWVAQ

[6] = biological target: T7, RQRQR (5-mer on peptide array)
T7 chain: RQRQR

[7] = biological target: T8, PRYRQ (5-mer on peptide array)
T8 chain: PRYRQ

[8] = biological target: T9, RYTQR (5-mer on peptide array)
T9 chain: RYTQR

[9] = biological target: T10, YKSWK (5-mer on peptide array)
T10 chain: YKSWK

[10] = biological target: T11, QRQRQ (5-mer on peptide array)
T11 chain: QRQRQ

Z-[GGGAYRTKGGGG] = biological target: T12, Z-[GGGAYRTKGGGG]
T12 chain: GGGAYRTKGGGG

[11] = biological target: T13, VRYRQ (5-mer on peptide array)
T13 chain: VRYRQ

Z-[GGGQYRQRGGGG] = biological target: T14, Z-[GGGQYRQRGGGG]
T14 chain: GGGQYRQRGGGG

[12] = biological target: T15, RYRQR (5-mer on peptide array)
T15 chain: RYRQR

[13] = biological target: T16, RYSQR (5-mer on peptide array)
T16 chain: RYSQR

[14] = biological target: T17, YKYAK (5-mer on peptide array)
T17 chain: YKYAK

[15] = biological target: T18, DWALQ (5-mer on peptide array)
T18 chain: DWALQ

Z-[GGGRYESKGGGG] = biological target: T19, Z-[GGGRYESKGGGG]
T19 chain: GGGRYESKGGGG

[16] = biological target: T20, YKYNK (5-mer on peptide array)
T20 chain: YKYNK

Z-[GGGYRYRQGGGG] = biological target: T21, Z-[GGGYRYRQGGGG]
T21 chain: GGGYRYRQGGGG

[17] = biological target: T22, EYVAQ (5-mer on peptide array)
T22 chain: EYVAQ

[18] = biological target: T23, RYRSK (5-mer on peptide array)
T23 chain: RYRSK

[19] = biological target: T24, EYFLQ (5-mer on peptide array)
T24 chain: EYFLQ

B1: Kutzneria albida microbial transglutaminase, activated enzyme (KalbTGt3) (protein)
chain: APLAPPLAEDRSYRTWRVEDYVEAWERYHGREMTEDERENLARGCIGVTVVNLNREDLSNPPLNLSFGSLRTAEAVQAALNKIVDTHPSPAQYEAAVAKDPILKRLKNVVKALPSWIDSAKLKASIFSKRFYSWQNPDWSEERAHTTYRPDRETDQVDMSTYRYRARPGYVNFDYGWFDQDTNTWWHANHEEPRMVVYQSTLRHYSRPLQDFDEQVFTVAFAKKDGGGSGHHHHHHHH
5-mer peptide array, incorporation of biotinylated glutamine donor Z-APRYRQRAAGGG-PEG-biotin [1]: the top 17 lysine-donor substrates identified on the 5-mer peptide array with KalbTG
5-mer peptide array, incorporation of biotinylated glutamine donor Z-APRYRQRAAGGG-PEG-biotin [2]: the top 17 lysine-donor substrates identified on the 5-mer peptide array with KalbTG
peptide array, second round of maturation [3]: A second round of maturation on the peptide array yielded APRYRQRAA (SEQ ID NO:24) as the top performing 9-mer substrate
5-mer peptide array, incorporation of biotinylated glutamine donor Z-APRYRQRAAGGG-PEG-biotin [4]: the top 17 lysine-donor substrates identified on the 5-mer peptide array with KalbTG
Array signal (log2) [4]: 12.8 log2
Reaction Rate in Solution (pmol s^-1), GLDH-coupled assay with 200 µM glutamine donor (Z-[GGGRYSKYGGGG]): 3.89 pmol/s
5-mer peptide array signal with KalbTG [5]: exhibited relatively lower signal on the KalbTG array
5-mer peptide array, incorporation of biotinylated amine donor [6]: the top 22 glutamine-donor substrates identified on the 5-mer peptide array with KalbTG
Array signal (log2) [6]: 8.84 log2
5-mer peptide array, incorporation of biotinylated amine donor [7]: the top 22 glutamine-donor substrates identified on the 5-mer peptide array with KalbTG
5-mer peptide array, incorporation of biotinylated amine donor [8]: the top 22 glutamine-donor substrates identified on the 5-mer peptide array with KalbTG
5-mer peptide array, incorporation of biotinylated glutamine donor Z-APRYRQRAAGGG-PEG-biotin [9]: the top 17 lysine-donor substrates identified on the 5-mer peptide array with KalbTG
5-mer peptide array, incorporation of biotinylated amine donor [10]: the top 22 glutamine-donor substrates identified on the 5-mer peptide array with KalbTG
Array signal (log2) [10]: 8.77 log2
Reaction Rate in Solution (pmol s^-1), GLDH-coupled assay with 200 µM glutamine donor (Z-[GGGAYRTKGGGG]): 3.65 pmol/s
5-mer peptide array, incorporation of biotinylated amine donor [11]: the top 22 glutamine-donor substrates identified on the 5-mer peptide array with KalbTG
Reaction rate in solution (pmol/s), GLDH-coupled assay (Z-[GGGQYRQRGGGG]): 1.92 pmol/s
5-mer peptide array, incorporation of biotinylated amine donor [12]: the top 22 glutamine-donor substrates identified on the 5-mer peptide array with KalbTG
Array signal (log2) [12]: 8.96 log2
5-mer peptide array, incorporation of biotinylated amine donor [13]: the top 22 glutamine-donor substrates identified on the 5-mer peptide array with KalbTG
Array signal (log2) [13]: 8.93 log2
5-mer peptide array, incorporation of biotinylated glutamine donor Z-APRYRQRAAGGG-PEG-biotin [14]: the top 17 lysine-donor substrates identified on the 5-mer peptide array with KalbTG
5-mer peptide array signal with KalbTG [15]: exhibited relatively lower signal on the KalbTG array
Reaction Rate in Solution (pmol s^-1), GLDH-coupled assay with 200 µM glutamine donor (Z-[GGGRYESKGGGG]): 4.47 pmol/s
5-mer peptide array, incorporation of biotinylated glutamine donor Z-APRYRQRAAGGG-PEG-biotin [16]: the top 17 lysine-donor substrates identified on the 5-mer peptide array with KalbTG
KM (Z-[GGGYRYRQGGGG]): 2150 µM
Reaction rate in solution (pmol/s), GLDH-coupled assay (Z-[GGGYRYRQGGGG]): 3.52 pmol/s
Vmax (Z-[GGGYRYRQGGGG]): 73.2 pmol/s
kcat (Z-[GGGYRYRQGGGG]): 1.92 s⁻¹
kcat/KM (Z-[GGGYRYRQGGGG]): 890 M⁻¹ s⁻¹
5-mer peptide array signal with KalbTG [17]: exhibited relatively lower signal on the KalbTG array
Array signal (log2) [18]: 12.4 log2
5-mer peptide array signal with KalbTG [19]: exhibited relatively lower signal on the KalbTG array
